What was measured:
Assay in all cases: ITC
[1] = molecular target: human CBX1 chromodomain, wild-type (His-tagged) (human) (UniProt P83916)
[2] = molecular target: human CBX3 chromodomain, wild-type (His-tagged) (human) (UniProt Q13185)
[3] = molecular target: HP1α chromodomain from D. melanogaster, wild-type (His-tagged) (D. melanogaster) (UniProt P05205)
[4] = molecular target: HP1α K46A/E52D/D62F engineered chromodomain (His-tagged) (D. melanogaster) (UniProt P05205)
[5] = molecular target: human CBX3 chromodomain double mutant K46A/D62F (HP1α numbering) (His-tagged) (human)
[6] = molecular target: human CBX1 chromodomain double mutant K46A/D62F (HP1α numbering) (His-tagged) (human)

Chain of UniProt P83916 (P83916 15-73): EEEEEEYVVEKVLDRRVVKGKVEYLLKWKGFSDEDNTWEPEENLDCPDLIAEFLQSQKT
Chain of UniProt Q13185 (Q13185 25-81): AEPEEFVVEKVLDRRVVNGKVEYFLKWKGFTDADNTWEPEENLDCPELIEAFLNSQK

- Kd [1]: 0.6 µM
- Kd [2]: 3 µM
- Kd [3]: 14 µM
- Kd [4]: 0.7 µM
- Kd [5]: 0.4 µM
- Kd [6]: 0.13 µM
Substance: H3K9me3 peptide (used in ITC)
